{"source": "paper PMC8804921", "key": {"[1]": {"target": "BES1 (BES1-GST / GST-BES1) (UniProt Q9LN63 1-335)", "sequence (Q9LN63 whole entry)": "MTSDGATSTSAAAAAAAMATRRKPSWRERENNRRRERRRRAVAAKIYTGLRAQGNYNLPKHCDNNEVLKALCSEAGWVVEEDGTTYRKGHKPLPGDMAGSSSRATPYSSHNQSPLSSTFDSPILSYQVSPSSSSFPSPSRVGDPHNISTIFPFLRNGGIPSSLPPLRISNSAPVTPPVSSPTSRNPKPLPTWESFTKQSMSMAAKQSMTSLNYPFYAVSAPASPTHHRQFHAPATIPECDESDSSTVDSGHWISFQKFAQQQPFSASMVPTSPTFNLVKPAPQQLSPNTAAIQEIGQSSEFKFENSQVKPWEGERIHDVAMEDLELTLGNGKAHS", "assay": "EMSA"}, "HSFA1a-MBP": {"target": "HSFA1a-MBP (UniProt P41151 1-495)", "sequence (P41151 whole entry)": "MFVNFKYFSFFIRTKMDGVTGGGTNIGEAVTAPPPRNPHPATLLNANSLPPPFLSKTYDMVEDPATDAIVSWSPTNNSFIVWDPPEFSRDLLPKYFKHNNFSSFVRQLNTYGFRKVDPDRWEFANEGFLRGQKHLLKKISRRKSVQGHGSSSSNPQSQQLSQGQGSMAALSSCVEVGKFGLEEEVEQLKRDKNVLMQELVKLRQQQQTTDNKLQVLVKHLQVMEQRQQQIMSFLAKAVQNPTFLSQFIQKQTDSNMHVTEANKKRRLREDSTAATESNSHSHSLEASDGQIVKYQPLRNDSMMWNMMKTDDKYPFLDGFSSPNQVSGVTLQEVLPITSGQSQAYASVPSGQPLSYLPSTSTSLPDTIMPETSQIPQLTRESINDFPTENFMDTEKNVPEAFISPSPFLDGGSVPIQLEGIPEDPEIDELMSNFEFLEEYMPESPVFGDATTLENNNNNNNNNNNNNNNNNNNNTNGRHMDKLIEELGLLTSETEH", "assay": "EMSA"}, "[2]": {"target": "T1, BES1 (BES1-GST / GST-BES1);HSFA1a-MBP (Arabidopsis thaliana?;Arabidopsis …, UniProt Q9LN63;P41151 1-335;1-495, |)", "T1 sequence (Q9LN63 whole entry, chain 1 of 2)": "as the sequence (Q9LN63 whole entry) above", "T1 sequence (P41151 whole entry, chain 2 of 2)": "as the sequence (P41151 whole entry) above", "assay": "EMSA"}, "[3]": {"target": "T1, BES1 (BES1-GST / GST-BES1);HSFA1a-MBP", "assay": "competition"}}, "data": [{"binder": "pHSP70.3 EMSA BRRE (C1 +BRRE) (dsDNA) DNA 1: ATCCAACTCCAAAAGATCGTGCGGTTACATAGCGAGCCAT DNA 2: ATGGCTCGCTATGTAACCGCACGATCTTTTGGAGTTGGAT", "values": [{"measurement": "binding result", "setting": "[1]", "result": "binds"}]}, {"binder": "pHSP90.1 EMSA HSE (C1 +HSE) (dsDNA) DNA 1: GAGTCTCGAAACGAAAAGAACTTTCTGGAATTCGTTTGCTCACAAAG DNA 2: CTTTGTGAGCAAACGAATTCCAGAAAGTTCTTTTCGTTTCGAGACTC", "values": [{"measurement": "binding result", "setting": "HSFA1a-MBP", "result": "binds"}, {"measurement": "binding result", "setting": "[2]", "result": "binds"}]}, {"binder": "pHSP70.3 EMSA HSE (C1 +HSE) (dsDNA) DNA 1: TTACATAGCGAGCCATCGAACCTTCTCGAAACTCGAGTACAAGACTC DNA 2: GAGTCTTGTACTCGAGTTTCGAGAAGGTTCGATGGCTCGCTATGTAA", "values": [{"measurement": "binding result", "setting": "HSFA1a-MBP", "result": "binds"}, {"measurement": "binding result", "setting": "[2]", "result": "binds"}]}, {"binder": "pHSP70.3 EMSA HSEmut (C2 -HSE) (dsDNA) DNA 1: TTACATAGCGAGCCATCTAACCTTATCTAAACTCGAGTACAAGACTC DNA 2: GAGTCTTGTACTCGAGTTTAGATAAGGTTAGATGGCTCGCTATGTAA", "values": [{"measurement": "binding result", "setting": "[3]", "result": "no binding"}]}, {"binder": "pHSP90.1 EMSA BRRE (C1 +BRRE) (dsDNA) DNA 1: TCCATCAGCTACAAAGTCGTGTGCGATTTTGAGTCGTTGT DNA 2: ACAACGACTCAAAATCGCACACGACTTTGTAGCTGATGGA", "values": [{"measurement": "binding result", "setting": "[1]", "result": "binds"}]}]}
